Test results published in patent US11712410 (K18, dated 2023).
No end group written: not given here.

T1: Hair Keratin KRTHB1 Basic (UniProt Q14533 304-505, limits assumed)
T1 construct: The keratin was printed onto a bare gold SPRi chip; also called natural hair keratin
T1 sequence (looked up): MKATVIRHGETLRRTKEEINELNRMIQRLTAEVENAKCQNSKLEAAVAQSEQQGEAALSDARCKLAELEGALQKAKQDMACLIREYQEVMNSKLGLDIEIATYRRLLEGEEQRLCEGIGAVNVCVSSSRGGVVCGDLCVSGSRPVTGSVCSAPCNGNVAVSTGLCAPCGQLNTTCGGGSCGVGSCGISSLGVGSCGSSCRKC


Key:
[1] = biological target: T1, Hair Keratin KRTHB1 Basic; assay: SPRi (PlexArray HT), rank among the three peptides tested on keratin
Method: (§1) Various concentrations of Keratin dissolved in water were manually printed onto the bare gold coated (thickness 47 nm) PlexArray Nanocapture Sensor Chip (Plexera Bioscience, Seattle, Wash., US) at 40% humidity. Each concentration was printed in replicate, and each spot contained 0.2 uL of […] solution. The chip was incubated in 80% humidity at 4° C. for overnight, and rinsed with 10×PBST for 10 min, 1×PBST for 10 min, and deionized water twice for 10 min. The chip was then blocked with 5% (w/v) non-fat milk in water overnight, and washed with 10×PBST for 10 min, 1×PBST for 10 min, and deionized water twice for 10 min before being dried under a stream of nitrogen prior to use. SPRi measurements were performed with PlexAray HT (Plexera Bioscience, Seattle, Wash., US). Collimated light (660 nm) passes through the coupling prism, reflects off the SPR-active gold surface, and is received the CCD camera. Buffers and samples were injected by a non-pulsatile piston pump into the 30 uL flowcell that was mounted on the coupling prim. Each measurement cycle contained four steps: washing with PBST running buffer at a constant rate of 2 uL/s to obtain a stable baseline, sample injection at 5 uL/s for binding, surface washing with PBST at 2 uL/s for 300 s, and regeneration with 0.5% (v/v) H3PO4 at 2 uL/s for 300 s. All the measurements were performed at 4° C. The signal changes after binding and washing (in AU) are recorded as the assay value. Selected protein-grafted regions in the SPR images were analyzed, and the average reflectivity variations of the chosen areas were plotted as a function of time. Real-time binding signals were recorded and analyzed by Data Analysis Module (DAM, Plexera Bioscience, Seattle, Wash., US). Kinetic analysis was performed using BIAevaluation 4.1 software (Biacore, Inc.).

[2] = biological target: T1, Hair Keratin KRTHB1 Basic; assay: SPRi (PlexArray HT), keratin printed on gold chip, peptide injected, 4 C
Method: as §1

[3] = biological target: T1, Hair Keratin KRTHB1 Basic; assay: SPRi (PlexArray HT), keratin printed on the gold chip, peptide injected; kinetic fit with BIAevaluation 4.1; five curves labelled 5.68 to 91.2 nM
Method: as §1

| Affinity Ranking [1] | Kd [2] [nM] | koff [3] [s⁻¹] | kon [3] [M⁻¹ s⁻¹] | Binder |
| --- | --- | --- | --- | --- |
| 2 | 814 | 0.00692 | 8500 | GGVCGPSPPCITT (not fully specified; cysteine pairing not given here, Control peptide developed by Khairpep; also called KP peptide; third peptide) [KP] |
| 3 | 2500 | 0.0206 | 8240 | CTPPSCCQLHHA (also called Aquis peptide 2; Peptide Aquis 2) [Aquis Pep 2] |
| 1 | 365 | 0.000478 | 1310 | FCGFPSCSTSG (also called Aquis peptide 1; Peptide Aquis 1) [Aquis Pep1] |
